The data set deals with the molecule itself. The data set is described as follows: bead aggregation assay.

B1: hs PCDH24 EC1-MAD10Fc (Fc fusion)
chain: NVAPKFLANMTSVILPEDLPVGAQAFWLVAEDQDNDPLTYGMSGPNAYFFAVTPKTGEVKLASALDYETLYTFKVTISVSDPYIQVQREMLVIVEDRNDNAPVFQNTAFSTSINETLPVGSVVFSVLAVDKDMGSAGMVVYSIEKVIPSTGDSEHLFRILANGSIVLNGSLSYNNKSAFYQLELKACDLGGMYHNTFTIQCSLPVFLSISVVDQPDLDPQFVREFYSASVAEDAAKGTSVLTVEAVDGDKGINDPVIYSISYSTRPGWFDIGADGVIRVNGSLDREQLLEADEEVQLQVTATETHLNIYGQEAKVSIWVTVRVMDVNDHKPEFYNCSLPACTFTPEEAQVNFTGYVDEHASPRIPIDDLTMVVYDPDKGSNGTFLLSLGGPDAEAFSVSPERAVGSASVQVLVRVSALVDYERQTAMAVQVVATDSVSQNFSVAMVTIHLRDINDHRPTFPQSLYVLTVPEHSATGSVVTDSIHATDPDTGAWGQITYSLLPGNGADLFQVDPVSGTVTVRNGELLDRESQAVYYLTLQATDGGNLSSSTTLQIHLLDINDNAPVVSGSYNIFVQEEEGNVSVTIQAHDNDEPGTNNSRLLFNLLPGPYSHNFSLDPDTGLLRNLGPLDREAIDPALEGRIVLTVLVSDCGEPVLGTKVNVTITVEDINDNLPIFNQSSYNFTVKEEDPGVLVGVVKAWDADQTEANNRISFSLSGSGANYFMIRGLVLGAGWAEGYLRLPPDVSLDYETQPVFNLTVSAENPDPQGGETIVDVCVNVKDVNDNPPTLDVASLRGIRVAENGSQHGQVAVVVASDVDTSAQLEIQLVNILCTKAGVDVGSLCWGWFSVAANGSVYINQSKAIDYEACDLVTLVVRACDLATDPGFQAYSNNGSLLITIEDVNDNAPYFLPENKTFVIIPELVLPNREVASVRARDDDSGNNGVILFSILRVDFISKDGATIPFQGVFSIFTSSEADVFAGSIQPVTSLDSTLQGTYQVTVQARDRPSLGPFLEATTTLNLFTVDQSYRSRLQFSTPKEEVGANRQAINAALTQATRTTVYIVDIQDIDSAARARPHSYLDAYFVFPNGSALTLDELSVMIRNDQDSLTQLLQLGLVVLGSQESQESDLSKQLIS
With B1, the binding result was “binds”.

The values are drawn from doi:10.1101/2020.09.01.278846 (bioRxiv, 2020).
